Test results published in IntAct's records for PubMed 17662948.

Target: rd23b_human RAD23B (UniProt P54727)
Sequence (P54727 whole entry): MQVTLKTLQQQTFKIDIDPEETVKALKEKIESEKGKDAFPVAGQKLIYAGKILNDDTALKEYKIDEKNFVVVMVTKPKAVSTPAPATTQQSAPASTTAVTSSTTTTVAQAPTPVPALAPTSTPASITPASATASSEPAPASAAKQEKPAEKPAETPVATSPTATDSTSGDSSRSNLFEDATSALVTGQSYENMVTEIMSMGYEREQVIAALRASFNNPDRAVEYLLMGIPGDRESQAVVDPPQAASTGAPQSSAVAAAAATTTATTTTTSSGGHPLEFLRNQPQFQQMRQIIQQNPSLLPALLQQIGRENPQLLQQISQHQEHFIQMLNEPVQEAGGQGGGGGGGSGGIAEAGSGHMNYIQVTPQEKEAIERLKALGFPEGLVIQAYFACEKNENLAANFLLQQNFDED

Chain of Paired box protein Pax-3 (Mus musculus), P24610 K475R (P24610 whole entry K475R): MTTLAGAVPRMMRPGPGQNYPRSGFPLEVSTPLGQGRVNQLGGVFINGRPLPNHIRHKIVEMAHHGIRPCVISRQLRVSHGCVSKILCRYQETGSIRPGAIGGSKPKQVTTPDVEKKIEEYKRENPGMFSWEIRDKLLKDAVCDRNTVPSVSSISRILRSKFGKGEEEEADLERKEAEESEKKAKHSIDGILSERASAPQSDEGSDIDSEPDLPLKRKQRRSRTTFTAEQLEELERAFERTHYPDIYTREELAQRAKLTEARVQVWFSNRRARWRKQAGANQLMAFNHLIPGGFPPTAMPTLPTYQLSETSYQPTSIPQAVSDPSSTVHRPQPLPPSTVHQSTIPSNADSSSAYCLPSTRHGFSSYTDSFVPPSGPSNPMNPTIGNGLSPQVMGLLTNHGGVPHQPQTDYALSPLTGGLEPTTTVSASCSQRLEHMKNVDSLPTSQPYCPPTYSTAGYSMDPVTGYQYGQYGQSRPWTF
Chain of Paired box protein Pax-3 (Mus musculus), P24610 K437R (P24610 whole entry K437R): as the sequence (P24610 whole entry K475R) above, with K437R, R475K counted along it

effect of a mutation on the interaction	Substance
decreasing interaction	Paired box protein Pax-3 (Mus musculus), P24610 K437R
decreasing interaction	Paired box protein Pax-3 (Mus musculus), P24610 K475R
